Assay results reported in patent publication US20160145332A1 (MONASH UNIVERSITY, published 2016).

Assays:
[1] = biological target: T1, Peptide 3 of hIL-21 (P3, 30aa) (human); assay: ELISA: Peptide 3 coated on the plate, biotinylated 2P2 alone or spiked with Peptide 3, Streptavidin-HRP, TMB, A450
T1 peptide: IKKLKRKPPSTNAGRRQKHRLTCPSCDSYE

[2] = biological target: mIL21 (Mus musculus, UniProt Q9ES17); assay: ELISA: mouse IL-21 coated on the plate, biotinylated 2P2 alone or spiked with Peptide 3, Streptavidin-HRP, TMB, A450
[3] = biological target: T2, Peptide 5 of hIL-21 (P5, 15aa) (human); assay: ELISA, biotinylated antibody on coated peptide
T2 peptide: PPSTNAGRRQKHRLT
Experimental: (§1) To detect epitopes of 2P2 and 3A3, peptides consisting of different regions of hIL-21 were synthesized commercially and coated on an ELISA plate, followed by blocking of non-specific binding sites with 3% BSA in PBS. Biotinylated 2P2 or 3A3 were then added to the wells and developed with Streptavidin-HRP and TMB substrates.
(§2) An ELISA assay was used to examine binding between antibodies 2P2 and 3A3 and a Streptavidin-HRP secondary only control to each of the peptides P1 to P5, hIL-21 and OVA peptide. […] Thus, the epitope recognized by antibody 2P2 comprised a minimal sequence of 9 mer to 15 mer, with the core sequence being […] (SEQ ID NO 23). Binding was stronger with the sequence CPSCD was also present and strongest binding was observed when the sequences IKKLK, CPSCD and […] were present.

[4] = biological target: T3, Peptide 4 of hIL-21 (P4, 23aa) (human); assay: ELISA, biotinylated antibody on coated peptide
T3 peptide: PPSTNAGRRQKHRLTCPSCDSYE
Experimental: as §1, §2

[5] = biological target: T4, human IL-21 (human, UniProt Q9HBE4 25-162, limits assumed); assay: SPR (Bio-Rad XPR36), average of the five wells of Table 6; mean of the five single KDs, SD 0.74x10^-9
T4 construct: also called hIL-21; full length hIL-21
T4 sequence (Q9HBE4 25-162 limits assumed): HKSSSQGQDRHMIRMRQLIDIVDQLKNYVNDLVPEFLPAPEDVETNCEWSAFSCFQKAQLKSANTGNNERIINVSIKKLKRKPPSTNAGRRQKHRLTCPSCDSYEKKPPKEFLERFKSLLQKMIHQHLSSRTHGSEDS
Experimental: (§3) Surface Plasma Resonance binding kinetics assay were performed on a Bio-rad XPR36 system by the direct amine coupling method. Briefly, a flow of mixture of EDC [N-ethyl-N′-(3-[…]-propyl)carbodiimide] and NHS (N-hydroxysuccinimide) was used to activate the cell surface of a GLC sensor chip before 25 μg/ml anti-IL-21 mAb was flowed through, then a shot flow of ethanolamine was used to block the remaining active sites on the cell surface. Afterwards, serial diluted solutions of IL-21 from 0 to 40 nM were flown over the cell surface to bind to the immobilized anti-IL-21 mAb molecules. Binding kinetics were performed at 25° C. with a flow rate of 30 μL/min, association time of 3 min and dissociation time of 6 min. The buffer consisted of Hepes, NaCl, tween20, and 1 mg/mL BSA at pH 7.4. The flow cell regeneration buffer between cycles was 15 mM phosphoric acid. Double references were used to process the sensorgrams. The binding curves were globally fit to the 1:1 Langmuir binding model.

[6] = biological target: T5, P1; assay: peptide ELISA: peptide coated on the plate, biotinylated antibody, Streptavidin-HRP, TMB, A450
T5 construct: also called Peptide 1 (P1, 30aa); peptide 1 of hIL-21
T5 sequence (peptide, as listed by the source): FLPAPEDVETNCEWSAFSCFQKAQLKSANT

[7] = biological target: T6, P2; assay: as above
T6 construct: also called Peptide 2 (P2, 27aa); peptide 2 of hIL-21
T6 peptide: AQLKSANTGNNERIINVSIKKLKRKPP

[8] = biological target: T4, human IL-21; assay: cell-based or functional assay
[9] = biological target: T4, human IL-21; assay: SPR (Bio-Rad XPR36), stated average of n=5 measurements; stated final affinity, average of n=5 (table 6)
Experimental: as §3

binding result [1]: binds
binding result [2]: no binding
binding result [3]: binds
binding result [4]: binds
Kd [5]: 3.33 nM
binding result [6]: no binding
binding result [7]: no binding
bioactivity of human IL-21 on Ba/F3-hIL-21R cell proliferation at 10 µg/ml 2P2 [8]: > 10 fold
hIL-21 bioactivity on human CD8 T cell activation (granzyme B and perforin) [8]: > 10 fold
hIL-21 mediated human B cell proliferation (CFSE dilution); 5 ng/ml hIL-21 plus 1 µg/ml 2P2 compared with 100 ng/ml hIL-21 [8]: ~20 fold
Kd [9]: 3 nM
B1: monoclonal antibody 2P2 (antibody, V domains shown)
VH: EVQLQQSGADLVRSGASVKLSCTASGFNIKDYYIHWVKQRPEQGLELIGWIDPESGDTEYAPKFQVKATMTADTSSNTAYLQLSSLTSEDTAVYYCNDGSGYWGQGTTLTVSS
VL: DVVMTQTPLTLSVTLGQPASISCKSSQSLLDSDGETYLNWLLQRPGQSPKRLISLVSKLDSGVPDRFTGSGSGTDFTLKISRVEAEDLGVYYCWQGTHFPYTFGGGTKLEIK
notes: It was biotinylated in the ELISA assays and unlabelled, amine-coupled to the chip, in SPR; also called mAb 2P2; mAB 2P2
